Assay results reported in paper PMC3252277.
One block for each substance: values may come before it.

Experiments:
[1] = molecular target: fibrillin-1 N-terminal half (Homo sapiens) (UniProt P35555); conditions: cited from earlier work
[2] = molecular target: C-terminal recombinant ADAMTS-10 polypeptide (human) (UniProt Q9H324); assay: SPR; C-terminal end of ADAMTS-10 coupled to a chip; soluble C-terminal ADAMTSL-3 at 80-0 nM; 25°C, HBS-EP buffer
[3] = molecular target: C-terminal recombinant ADAMTS-10 polypeptide (human) (UniProt Q9H324); assay: SPR; data not shown; N-terminal fibrillin-1 polypeptide with the C-terminal end of ADAMTS-10

Chain of UniProt Q9H324 (Q9H324 26-1103): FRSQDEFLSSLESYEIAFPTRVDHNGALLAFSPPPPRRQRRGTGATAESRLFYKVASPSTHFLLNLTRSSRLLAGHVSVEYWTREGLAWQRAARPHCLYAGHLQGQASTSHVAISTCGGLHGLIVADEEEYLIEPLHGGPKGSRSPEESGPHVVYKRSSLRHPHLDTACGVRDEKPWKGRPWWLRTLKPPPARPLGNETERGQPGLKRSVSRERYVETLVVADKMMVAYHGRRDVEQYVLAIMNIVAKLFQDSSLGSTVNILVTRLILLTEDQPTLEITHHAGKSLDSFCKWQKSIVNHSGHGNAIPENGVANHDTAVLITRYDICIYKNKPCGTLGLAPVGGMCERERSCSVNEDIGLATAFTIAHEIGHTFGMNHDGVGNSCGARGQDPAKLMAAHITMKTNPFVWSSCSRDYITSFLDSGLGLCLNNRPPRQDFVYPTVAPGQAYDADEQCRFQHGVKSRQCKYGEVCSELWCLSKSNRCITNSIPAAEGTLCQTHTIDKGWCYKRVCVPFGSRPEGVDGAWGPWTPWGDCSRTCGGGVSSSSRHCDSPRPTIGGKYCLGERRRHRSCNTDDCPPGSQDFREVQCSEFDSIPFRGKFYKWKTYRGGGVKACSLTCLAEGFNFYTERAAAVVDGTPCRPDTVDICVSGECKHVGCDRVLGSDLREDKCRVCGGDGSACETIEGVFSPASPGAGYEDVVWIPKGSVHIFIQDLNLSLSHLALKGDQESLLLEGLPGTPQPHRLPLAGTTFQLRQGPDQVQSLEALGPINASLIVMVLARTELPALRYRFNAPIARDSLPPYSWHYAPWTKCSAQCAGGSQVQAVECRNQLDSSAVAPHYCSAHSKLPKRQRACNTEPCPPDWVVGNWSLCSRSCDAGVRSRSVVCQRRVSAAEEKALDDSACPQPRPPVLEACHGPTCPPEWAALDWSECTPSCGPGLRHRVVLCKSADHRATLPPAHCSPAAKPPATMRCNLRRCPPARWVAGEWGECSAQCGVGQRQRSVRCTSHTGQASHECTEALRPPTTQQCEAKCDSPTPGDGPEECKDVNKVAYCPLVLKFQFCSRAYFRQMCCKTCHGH
Chain of UniProt P35555 (P35555 45-1527): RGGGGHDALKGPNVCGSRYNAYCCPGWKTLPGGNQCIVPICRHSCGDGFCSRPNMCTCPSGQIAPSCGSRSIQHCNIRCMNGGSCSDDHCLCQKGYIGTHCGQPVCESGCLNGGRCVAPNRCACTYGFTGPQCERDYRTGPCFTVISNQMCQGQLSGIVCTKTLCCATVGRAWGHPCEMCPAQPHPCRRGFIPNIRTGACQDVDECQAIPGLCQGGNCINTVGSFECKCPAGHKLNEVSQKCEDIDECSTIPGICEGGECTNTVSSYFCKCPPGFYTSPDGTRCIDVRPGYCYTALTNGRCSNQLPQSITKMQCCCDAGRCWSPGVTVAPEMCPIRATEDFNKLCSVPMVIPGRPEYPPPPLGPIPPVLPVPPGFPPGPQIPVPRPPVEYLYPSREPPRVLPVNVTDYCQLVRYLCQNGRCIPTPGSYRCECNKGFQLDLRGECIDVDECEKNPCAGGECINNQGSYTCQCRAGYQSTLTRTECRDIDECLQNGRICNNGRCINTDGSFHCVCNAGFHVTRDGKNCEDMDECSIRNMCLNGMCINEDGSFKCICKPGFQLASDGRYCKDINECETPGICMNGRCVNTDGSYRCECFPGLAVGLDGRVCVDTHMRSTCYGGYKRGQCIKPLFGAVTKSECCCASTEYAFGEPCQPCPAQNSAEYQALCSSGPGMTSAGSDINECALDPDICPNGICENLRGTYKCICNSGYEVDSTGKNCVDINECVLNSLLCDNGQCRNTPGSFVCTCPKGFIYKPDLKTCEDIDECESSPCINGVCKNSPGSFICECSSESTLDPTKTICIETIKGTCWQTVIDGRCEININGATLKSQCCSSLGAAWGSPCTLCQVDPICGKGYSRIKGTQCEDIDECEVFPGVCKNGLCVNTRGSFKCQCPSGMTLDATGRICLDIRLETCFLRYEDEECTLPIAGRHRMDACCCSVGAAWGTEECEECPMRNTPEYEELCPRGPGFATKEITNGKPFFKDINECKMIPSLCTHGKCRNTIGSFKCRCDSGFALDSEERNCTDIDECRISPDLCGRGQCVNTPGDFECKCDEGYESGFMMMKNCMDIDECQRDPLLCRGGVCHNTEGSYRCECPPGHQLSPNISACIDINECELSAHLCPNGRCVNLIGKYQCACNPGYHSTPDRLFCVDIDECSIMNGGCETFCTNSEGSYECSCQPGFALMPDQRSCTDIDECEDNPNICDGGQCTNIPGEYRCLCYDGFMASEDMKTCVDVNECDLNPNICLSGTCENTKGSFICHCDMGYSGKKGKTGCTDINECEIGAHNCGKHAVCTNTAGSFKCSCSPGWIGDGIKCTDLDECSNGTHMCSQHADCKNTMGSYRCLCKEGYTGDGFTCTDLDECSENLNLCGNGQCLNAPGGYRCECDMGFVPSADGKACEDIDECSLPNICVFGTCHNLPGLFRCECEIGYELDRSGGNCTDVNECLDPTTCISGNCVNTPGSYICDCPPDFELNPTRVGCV

Substance: ADAMTSL-6 (from UniProt Q6ZMP0)
Kd [1]: 80 nM

Kd [2]: 2 nM
Substance: C-terminal ADAMTSL-3 polypeptide (domain or fragment)

Kd [3]: 450 nM
Substance: rF90, recombinant N-terminal half of wildtype fibrillin-1 (from UniProt P35555 25-2871) (domain or fragment)
